Experimental findings from paper PMC7079959 are described below.

The assay deals with T1, MS2 bacteriophage coat protein (bacteriophage MS2), P03612.
T1 chain: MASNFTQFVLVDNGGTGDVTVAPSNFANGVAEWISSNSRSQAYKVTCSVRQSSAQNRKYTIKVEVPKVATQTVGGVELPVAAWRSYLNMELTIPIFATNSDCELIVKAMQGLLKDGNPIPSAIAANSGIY
In words: SEC. Conditions: remark: other sources report otherwise.

B1: MS2 bacteriophage coat protein, P03612 1-130 (natural protein)
chain: T1 chain
Take B1: the stoichiometry N (commonly a count of units in the complex or per binding partner) came to 2.
